Paper PMC12240809

Target: V5–FoTO1 (Taxus media)
Test: co-IP; lysate of N. benthamiana leaves co-expressing both proteins; anti-V5 antibody on protein G magnetic beads, blot with anti-HA-HRP; lysates incubated 15 min with no compound, 45 μM taxadiene or a mock terpene (caryophyllene); extraction buffer 50 mM Tris pH 7.5, 150 mM NaCl, 0.6% NP-40, 0.6% CHAPS, 1 mM β-mercaptoethanol

T5αH–HA, sequence (Q6WG30 whole entry): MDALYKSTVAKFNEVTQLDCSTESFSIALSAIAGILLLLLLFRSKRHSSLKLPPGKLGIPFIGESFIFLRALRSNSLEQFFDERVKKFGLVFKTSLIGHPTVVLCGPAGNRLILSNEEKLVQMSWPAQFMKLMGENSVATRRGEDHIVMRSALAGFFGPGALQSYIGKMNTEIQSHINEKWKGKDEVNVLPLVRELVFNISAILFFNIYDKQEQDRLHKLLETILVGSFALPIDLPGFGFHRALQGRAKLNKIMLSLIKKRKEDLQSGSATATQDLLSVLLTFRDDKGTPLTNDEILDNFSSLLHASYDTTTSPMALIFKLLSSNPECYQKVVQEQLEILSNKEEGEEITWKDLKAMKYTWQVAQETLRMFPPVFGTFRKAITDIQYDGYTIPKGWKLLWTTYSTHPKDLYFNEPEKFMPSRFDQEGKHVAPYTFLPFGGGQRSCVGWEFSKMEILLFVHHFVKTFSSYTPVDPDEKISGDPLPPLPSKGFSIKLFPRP

- fold increase of the co-IP signal with 45 μM taxadiene: 4 fold
Substance: T5αH–HA (from UniProt Q6WG30 1-499) (enzyme)
